Results published in PMC10010047.

Biological target: insulin growth factor-1 receptor (IGF1R) (mouse (endogenous in mouse heart))
Test: BLI

Kd: 147 µM
B1: recombinant mouse SIRPα Fc chimera protein (rSIRPα) (Fc fusion)
chain: KELKVTQPEKSVSVAAGDSTVLNCTLTSLLPVGPIRWYRGVGPSRLLIYSFAGEYVPRIRNVSDTTKRNNMDFSIRISNVTPADAGIYYCVKFQKGSSEPDTEIQSGGGTEVYVLAKPSPPEVSGPADRGIPDQKVNFTCKSHGFSPRNITLKWFKDGQELHPLETTVNPSGKNVSYNISSTVRVVLNSMDVNSKVICEVAHITLDRSPLRGIANLSNFIRVSPTVKVTQQSPTSMNQVNLTCRAERFYPEDLQLIWLENGNVSRNDTPKNLTKNTDGTYNYTSLFLVNSSAHREDVVFTCQVKHDQQPAITRNHTVLGFAHSSDQGSMQTFPDNNATHNWN
